Results from the DeepSol protein solubility set.

assay: soluble on expression in E. coli; label from the status in PepcDB or PDB records

| Sequence | soluble on expression in E. coli |
| --- | --- |
| MGPTPHIAVIGGGSTGAGIARDLAMRGLDVTLVEQGNLTHGTTGRMHGLLHSGGRYAVSDQASATECIEENRVLRDIASHCVEMTGGLFVKRPEDSEEYFQKKLNGCEECGIPAEVVSGEEARAMEPHLAKDIDKAISVPDGAIDPFRLVVANAASAQEHGARIETHTKVTDLLVESGEVVGIEVEHDSGPGKRVHGTEGGTEQIRADYVVNATGAWAGRIGDMAGLDIEVRPSKGVMTIMNIRQVDTVINRCRPKGDADIVVPHETTAILGTTDEEVEDPEDYPEEQWEVDMMIDTLSELIPMLDEARTIRSFWGVRPLYEPPDVGSDDPTDITRDFFLLDHDERDDLPGMTSIVGGKFTTYRMMGEQIADHVCGKFGIDADCRTADEPLPGSEDFSVLRDYMDEFGLRSPIGRRSVERLGSRADDVLKTDGPNPTVCACEGVTRAEIQDAIGGSGSDLNAVRIRTRASMGNCQGGFCSHRMASELHSEYDEPVVREAWDELLQERWKGQRHALWGEQLSQAALNYALHATTQNRDQDPADGEPVDFSAFDSGRGQTGGSVDSADVAADGGTNGYLEHHHHHH | not soluble |
| PLSQVVRFHASSGTTGKPTVVGYTANDIRNWVESLCRALVSCGVSSDDIMQIAYGYGLFTGGLGFHYAAERLGATVLPISAGNTARQIELMKDLGSTVMACTPSYMIYLAEYASQMGVDIAEDTNLRAGIFGAEPWSEETRKRIEDKTGITAYDVYGTSELSGPLFTECTER | not soluble |
| GAKPNQKVIAEILKYPSPGKNPEAKVVKVLGDLDDPSIDLPSVIVKHDLPEPGEFPEEVIREANAIPARVRKKDLVGRKDLRDKVIVTIDGEDAKDFDDAISVEKLPNGNYLLGVHIADVSHYVKEGSALDQEAFKRGTSVYLIDTVIPMLPFRLSNGICSLVEGKDRLTMSVEMEIDRDGRVVRYDVYPSVIKSKKRMIYERVNEFLEDPSSMKEYEPFKDLIYNAVELAEILREARRKRGAILDIESDEVKVILDENGQVVDIVPRKRGIAEKLIEEFMIRANETVAEIFDHAGLPFMYRVHEEPDPETIFQLKNYLEAMGIRAKFSHKIHPGMLQKLLEKVKDHPLRSSVERLLVRSMKRAMY | soluble |
| MTLYPKLILDALATVRYPGTGKNLLEAEMVADNLRIDGMAVSFSLIFEKPTDPFMKSMLKAAETAIHTYVSPDVQVTITTESKQAARPEVGKLLPQVKNIIGISSGKGGVGKSTVSANLAVALAKLGYKVGLLDADIFGPSMPKMFQVEDARPYAEKINGRDLIIPVEKYGVKLLSIGFFVDPDQATLWRGGMASNALKQLIGDADWGDLDYFLIDLPPGTSDIHLTVVQTLAMTGAIVVSTPQAVALADARKGINMFTNDKVNVPILGLVENMAWFTPAELPENKYYIFGKEGAKKLAEEMNVPLLGQIPIVQSICEGGDNGTPVALDEDTVTGRAFLSLAASVVRQVDRRNVEMAPTKIVEMH | not soluble |
| MSANVDLNQRPDYDAVLQDIADYVLDYRIDSTEALDTARNCLMDTLGCGLLALRFPECTKHLGPLVEGTLVPHGARVPGTSFRLDPVKAAWDIGCIVRWLDYNDTWLAAEWGHPSDNLGGILAVADHLSQKRLANGEAPLSMRQVLEAMIMAHEIQGVIALENSFNRVGLDHVLLVKVASTAVCAKLMGADREQLLAALSHAFVDGQALRTYRHAPNAGSRKSWAAGDATSRGVRLADIALRGEMGIPGVLSAPQWGFYDVLFSHTSKDLATKPEDKRRFSFPQGYGSYVMENVLFKISFPAEFHAQTAAEAAVRLHPLVKDRLQRISRIVITTHESAIRIISKVGPLANPADRDHCLQYMTAVPLIFGDLVAEHYEDAFHAAHPLIDRLREKMEIVEEPRYSREYLEADKRSIANAVEVFFDDGSSTGQVAVEYPLGHRRRRAEGIPLLQEKFKANLATRFPPQRCQRIFDLCSHQASLEATPVNRFMDLLAI | not soluble |
| MSITDVLSADDIAAALQECRDPDTFEPQKFFQTSGLSKMSANQVKDVFRFIDNDQSGYLDEEELKFFLQKFESGARELTESETKSLMAAADNDGDGKIGAEEFQEMVHS | soluble |
| MGSDKIHHHHHHMKVLIVGGSGGIGQAMVKQVQETYPDATVHATYRHHLPNDRQNNIQWHALDVTNEAEIKQLSEQLTELDWLINCVGILHTQDKGPEKSLQSLDIDFFQHNLTLNTLPSVMLAKHFCHALKQSDSARFAVISAKVGSITDNRLGGWYSYRASKAALNMFLKTLAIEWQRNMKHCVVLSLHPGTTDTPLSQPFQQSVPKGKLFTPEYVANCLLPIIANATPAQTGCFFAYDGTELPW | not soluble |
| MMWIPYNQGFHAGPKCLTVVFIYLLNMKVLRHIYRFLMELYGPQGWWPLLDRDTMTLRYHPGDYTPPSDDGDVFEVITGSILTQNTSWDSAASALRNLAAMDALKPHRILSLDDAELEAAIRCAGFYRQKVSYLREMAGFFISLEGSTPSRKELLKVRGVGPETADSVLLYAYRKPEFVVDAYTRRILTHLGLIAGDESYHRIKELFERSLEPDFRVFQEYHALIVRHGKSYYRGRVHGDGDPLTEKLEHHHHHH | not soluble |
| MSLGETFTITKMNVERIKQEERLFCKSCASPVMIKAGQIKIPHFAHEKTMKCAFASEGESEEHLAAKKQIMAWYCYQSIPVEVESYFPEIKRQADIFVNGKAVIEFQRSSISISEMIQRTMDYLSIGLEVHWILGQVVRKEKGRICLSAFQQAFIQSDKKLGYHFWHYSTEREICTLYYHLTFEKGNRFFASEMKFSMKAPFSEWKKKLARIITRHAYVKRDRELERQKICFYYAKFKKHGQFMQKLFNAGYYLHYLPKEIGVDLEEQFLVITPAVEWQFDLWEKFFKGLEKGDTFSECCFFESFQSVVTQILTIWLSPNESLKLGKSYLSYLIGEGVLSTIPDNRYRVKRKMVFTNTRAAHIEGHHHHHH | not soluble |
| MGSDKIHHHHHHMSTINNRNPKISVLMSIYKENSLYVRQAIDSILNQSFGDFEFLIYNDNPEDFILDKLVLEIARKDSRIQYQRNEKNIGLAATLNRQICVAKGEYLARMDADDISLPDRFIMQVEYLDRNTNIAVLGTWAKIIDKEGQVISSASLKTGYNNIIACAMCDSPLFHPSVMIRKEFLQLNGLSYNEDFSCAQDYELWSRILFEKGGYIDNLSVYLIYYRVTTSQISSIKQQQQIYNSLLVRRNNISFFLNKYSIDLPRKITKTDVCNLINRISEFKEESSTHKIYVNILFMYCMSLPRLEKIILLIKYVCVFYSEFSLKQMCLLVASSFFMRKFPLCSLNIMLH | not soluble |
| MLEILYQDEWLVAVNKPSGWLVHRSWLDRDEKVVVMQTVRDQIGQHVFTAHRLDRPTSGVLLMGLSSEAGRLLAQQFEQHQIQKRYHAIVRGWLMEEAVLDYPLVEELDKIADKFAREDKGPQPAVTHYRGLATVEMPVATGRYPTTRYGLVELEPKTGRKHQLRRHLAHLRHPIIGDSKHGDLRQNRSGAEHFGLQRLMLHASQLSLTHPFTGEPLTIHAGLDDTWMQALSQFGWRGLLPENERVEFSAPSGQDGEISSLEHHHHHH | not soluble |
| MGSDKIHHHHHHMPQDVMTANHVSPSNDAAAPSALDLARNQRLSLMDLLSVSEALNAAGQQAAAAELYKTWVAFNDNNPTIHLAYFNYAVMLNQLGDRAGAVQAFRACLKANPEFAPGHINLGRALEDAGLIGHAVEQWSHYAEVTKNVDAETIGHRHMTLQNMGRVLEGAGKLEEAETALLQAFELRPELPEAGQHWASLRQRQCKWPVLAPSNHISPRKMLDAMSSLTLSCYADDPMFQLAKAYRLSKTLIGARPDLSRFPRRSPKQKSGTGQRLRVGYLSSDLRDHAVGFALCEVLELHDKDSLEVFAYYCGNVRGTDSTQERIKAAVHCWRDIHGVDDATAASQIIADEIDILIDVNGYTKDARAKIFAYRPAPVIVSFCGYPGSMGSPFHQYLISDGYMIPPENEIYYSEKVLRIACDQPLDRKRPVAARPSRADVGLPEDAFVYASFNGMQKITENCFARWMTILSETPGSLLWLLTGDDDVNQRLRDLAEKSGVASERLVFAPKAQNPQHIARIGLADLFLDTFPYGAHSTASDAITSGLPVLTMYGKTFAARFCGSIVTAAGVPEMICSSPEDYVARAIGFERDRQSLLEVRESIARQRETSVLRDIPALARRLEELFWQMQGECERGETPVPDLSNLDIYYEAGAEALLENIEFEDEQSYRERYLKKLRQWHDYAPIPYDRRLWQNPDN | not soluble |
| NVDKAIKFGQIQNKAVTLGQGGFFNDDFSDGQAGVHYPDLDNAEPMPESEKLQYEKRLVGFYLSHHPLDRFRRDWEAFASLTLDKRDVTPSKL | not soluble |
